Experiment: label from the status in PepcDB records
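Also: failed if final PepcDB status was selected cloned or expressed and not failed if soluble or beyond.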

| Sequence | protein production |
| --- | --- |
| MSGFSMKRVSQMTALAMALGLACASSWAAELAKPLTLDQLQQQNGKAIDTRPSAFYNGWPQTLNGPSGHELAALNLSASWLDKMSTEQLNAWIKQHNLKTDAPVALYGNDKDVDAVKTRLQKAGLTHISILSDALSEPSRLQKLPHFEQLVYPQWLHDLQQGKEVTAKPAGDWKVIEAAWGAPKLYLISHIPGADYIDTNEVESEPLWNKVSDEQLKAMLAKHGIRHDTTVILYGRDVYAAARVAQIMLYAGVKDVRLLDGGWQTWSDAGLPVERGTPPKVKAEPDFGVKIPAQPQLMLDMEQARGLLHRQDASLVSIRSWPEFIGTTSGYSYIKPKGEIAGARWGHAGSDSTHMEDFHNPDGTMRSADDITAMWKAWNIKPEQQVSFYCGTGWRASETFMYARAMGWKNVSVYDGGWYEWSSDPKNPVATGERGPDSSK | failed |
| MQCNICEVRCEINKHSTGRCGTYVSTGNTITQYPGMGYMGAYPISIEEVPLHHFYPSGKFLQIFSKGCNFQCPGCAARMPASSEPSTQQASLSPSEVVKRALKQECLGVVSTLNDPVANYYLFRDLAIQAQEKSLLVGCSTNCYFTSETLEEFGQLVDFVNVGIKGYSDRGYRNCGVTSSAPVFRNISRLFDMGVHVETSIAYSRGNEEDVIKVAEAVSDISPTIPLHVMRFLPFGYAPIELEPSIGEAEKICSDLRRYLDFVYLFNSPGTELLNTYCPECGRLLIEREFHRPFGSRLVKPWLSHKCSCGCSIPVQGKAPTEGFSEAGLMDSYSISQAFSMVHAVLTCLGVLDDYKLMDIWGEDKLMDVWSKVSNPKTLMQIHNMIRQPYSYLEFIKFIAEKANMPEKGEELVSFIHKRLQIVQNLSAGKSSYYVYYCMGSPFFALNAGRMENNLVTFSGGVSINKQLQKEGKLGVSVSPSFINEHNPGVIFVSGFLSRPLDEFYALCQKYGIHADAVTQHRVYEIPPSWDFGSPRWILGLMYITDKLHPGKLEVDLKKEADDFYLQFYGMRFKEARPNRSFHRPSSGIWPHTQTLYNYFEMEVPNQDSTKNFGNEITQPFNILPTCKIKLKE | failed |
| MNEQRLSMRLERVATHVPAGARLADIGSDHGYLPVALLNRGAVSAAVAGEVALTPFYAAERTVRENDLDQQISVRLADGLAAIEPTDRITAISLCGMGGETIRDILESGKARLSGQERLILQPNGGEQPLRVWLMEHNYRILDEEVLRENRFDYEIIVAERTGPMIYTAEQLYFGPIQMQTRSPAFLLKWQRLLGKKHKALSNFARARKAVPEEKMQDLAQQIRWITALLN | failed |
| MENMENDENIVVGPKPFYPIEEGSAGTQLRKYMERYAKLGAIAFTNAVTGVDYSYAEYLEKSCCLGKALQNYGLVVDGRIALCSENCEEFFIPVIAGLFIGVGVAPTNEIYTLRELVHSLGISKPTIVFSSKKGLDKVITVQKTVTTIKTIVILDSKVDYRGYQCLDTFIKRNTPPGFQASSFKTVEVDRKEQVALIMNSSGSTGLPKGVQLTHENTVTRFSHARDPIYGNQVSPGTAVLTVVPFHHGFGMFTTLGYLICGFRVVMLTKFDEETFLKTLQDYKCTSVILVPTLFAILNKSELLNKYDLSNLVEIASGGAPLSKEVGEAVARRFNLPGVRQGYGLTETTSAIIITPEGDDKPGASGKVVPLFKAKVIDLDTKKSLGPNRRGEVCVKGPMLMKGYVNNPEATKELIDEEGWLHTGDIGYYDEEKHFFIVDRLKSLIKYKGYQVPPAELESVLLQHPSIFDAGVAGVPDPVAGELPGAVVVLESGKNMTEKEVMDYVASQVSNAKRLRGGVRFVDEVPKGLTGKIDGRAIREILKKPVAKM | not failed |
| MHLSLLVPFLFWITGCCTAEDPVTGPEEVSGQEQGSLTVQCRYTSGWKDYKKYWCQGVPQRSCKTLVETDASEQLVKKNRVSIRDNQRDFIFTVTMEDLRMSDAGIYWCGITKGGLDPMFKVTVNIGPAIQVPITVPTMPPITSTTTIFTVTTTVKETSMFPTLTSYYSDNGHGGGDSGGGEDGVGDGFLDLSVLLPVISAVLLLLLLVASLFAWRMVRRQKKAAGPPSEQAQSLEGDLCYADLSLKQPRTSPGSSWKKGSSMSSSGKDHQEEVEYVTMAPFPREEVSYAALTLAGLGQEPTYGNTGCPITHVPRTGLEEETTEYSSIRRPLPAAMP | not failed |
| MADSDSNEVLIEEIDSNDVPENELEQFQETEPLRVVDIIDCDTDGERRCIADDEEEGALIKRYVQGVQCLEFPDFCTKLEASDEDEEGNDEEPSEAAGSIEKPNTSAQAKTSQEQSTGSGRSGGGGFRKSQLSTALQGLMGEANLSFVYGRYETAERICMEIIRQNPLASEPFYTLAEIYENRDEVKFLNFSTLAAHLNPQDRDMWIRVSDLLVQQGNLARARLIYTKAIKMLPKVYQLRLRKAQLLQKMGETNASMFTYLKMLPLMPPDEWKMCLNTAKNVARYFHVLEKHSLALEAMEGAYSVCGARFTLEDINIYLELLILNKQYAKVLRCLRERTNFELENDQEESLELIYFCEIPDDYVPELRAKLCVSLIHMRAHHLLGYLIQNVQEHITLTADRVELYMDITEALMQEHKYAEAIALMSPITDGDTVECPAFVWLRQAECLRQLNRTNEAIQSYEKVVQLAPFCYDARFTLSALLKQQGRHEEAVQALEQPGEAEGQPLIARLLYERCVMLQQIGRIEEFLDVGYALLSRHSIKLYNREEMMAAANGGSAYNSESLKTIIQMRSKAVDNSAEQDLQDPAKNAASETSDLTVKDEFELFRELVRTAFKHGMHSAAEKICFAMVTTKRFTYYHHEIERIMVLTCYYNDDCAIAFSYLRELIAKQPSQTTLWNMLSLMIQKGDEVRYYRYMRRLMQRHPVDTKPMRIFQGHYHLNCASFKYALNIYMPILRENPDPLVALCIAVAFNQLSLQKKVLRKSASVAQAVAFGQRYKELRSAGHELADCAAQQEIFYNIGRIYHQANILHLAVDYYEKALAVPVHPLIAEHESTLGLQHEVAFNLHLIYRANGNKWKARQYLMRYCVV | failed |
| MEDSSLLSPISLLTIVIFLFILNLMMIIQDFSSSFPFRFHLFFSNAYILFTSIRNNKQNTELPIIKKVVVPNRADIKTSVEEVKAIIDDSEALYECLIEEGEEYLLEKNEMMGKEIVKEAFRLFDENQDGFIDENELKHVLSLLGYDECTKMECRKMVKVYDENRDGKIDFYEFVKLIEKSFS | failed |
| QTASGASYVLREIGADDTATAFAALSVLRSSLTDIGRFTEQINKIQRPQGYRLLGIFEECKHNAVAVCGFREACTLAGGRHIHIDDIVTLPQSRRKGYASRLLEEVRKIGAETGVTKIHLNVHVNHDRTDAHRLYFKNGFEICAYHFRCDPK | failed |
| MGIMPRKVLAIKNFKERFDLLPKLKGVIAEKQPDILVVVGNILKNEALEKEYERAHLARREPNRKVIHENEHYIIETLDKFFREIGELGVKTFVVPGKNDAPLKIFLRAAYEAETAYPNIRVLHEGFAGWRGEFEVIGFGGLLTEHEFEEDFVLKYPRWYVEYILKFVNELKPRRLVTIFYTPPIGEFVDRTPEDPKHHGSAVVNTIIKSLNPEVAIVGHVGKGHELVGNTIVVNPGEFEEGRYAFLDLTQHKIKLEQFS | not failed |
| MKYIIIGLGNYGGVLAEELSVLGHEVIGVDTNEHRVDVLKDKIATSFIIDATDEQSLSVLPLKDVDVVIVAIGENFGASVRVVALLKKKGVKHIYARAVDDVHKTVLEAFNLDSILTPEKEAARSLVQLLDLHVNVESFQIDEEHYVMKFKLPSCFVGYKVSDLSLETEFNIKIIALIKGEKVLNGLGISILEHQVENHFEENYELEEEDQLVCYGLYKNFMDFWKAL | failed |
| MTTGDGRSRLLAAATRLIRTQGFAATSVEAICREAGVTKGAFFHHFPSKEALGVAAAEAWSDVTGRLFAEAPYHRPADPLDRVLAYIDFRRALVAGEIADYTCLVGTLVQEAYGSDPIRAACGASILGHAGTLEADMAAAAEARGVADVDPASLARHTQAVLQGAFILAKAGGGAAAVEEALDHLKRYLRLLFANPGASGA | failed |
| MPCRGLHAIPAGPPEFPELATIYVVCGDKLNVMIDAGVTNSIMDSSFLEKLDLVILTHIHIDHIGLLPEILDRYKNAKVMIKNGFKKFLTTEDGVRRLNESSEKVLGDLYYIYGEFTKIDPDKVVEVEGGEMIDIGDGKTLKIIYTPGHAKHHISVVSDDILFTGDSGGAYFNGAVIPTTPPPLDYDNYVNSLRLQISLKPKVVGLAHGGLVSPNILEQHLDQMLGKESFDIGEIDIGGIGGEILRKQVEVNLRGLNEALGRNKKTLLEHHHHHH | failed |
| MEQVIAQVIKRQQTEERPPDVLSQQTTKYEKRNSASLRKRKNSSKLYLKTDQNWMALREKLASNSIHDKGKYRQKRESNVTCFKSGVESGIQNSSVRSRETQVTFCDGTVPSQGLELANSKSTAEISSRNEIPRLTKVVALDCEFVGVGKLGKEHSLARVSIVNFKGEVLYDKYVLNDKEPVVDYRTSVSGIRPEHLRSSDAVSFEQAQRDVYSIIRNRILVGHAIHHDMHALLLSHPRKLIRDTSKWRGLRSHHLSRKTPSLRKLAQEILGIRIQDGEHDSVEDARATLMIYKRFAKEWEMELQTKKVKLARKKHR | failed |
| MSTPRQILAAIFDMDGLLIDSEPLWDRAELDVMASLGVDISRRNELPDTLGLRIDMVVDLWYARQPWNGPSRQEVVEQVIARAISLVEETRPLLPGVREAVALCKEQGLLVGLASASPLHMLEKVLTMFDLRDSFDALASAEKLPYSKPHPQVYLDCAAKLGVDPLTCVALEDSVNGMIASKAARMRSIVVPAPEAQNDPRFVLANVKLSSLTELTAKDLLG | not failed |
| MGEYCEKDFRSLQRCAEMNNIRIFKFLVILYSLLLIASSFVYYYREDIYIRPESYFYLLTLAVGVTFAQIIFFGRNSRSEVKFLIFVEVLLVALSFTLTQQALYKTVLGRDPWFHWILVEEIVKRGSIPPYEQIPIPYVRMPNFHLVIASGIVLTNLSYKWAQVLFAGFPTLILLMLVAFLYSKKLFDDQVGLVSILLVAISDNVLDMVGKNIVPNTLGVALAFLIFYLIYFREYHNLMIKFLSVLVAIALAFMHTVSLTFLIWQIFVISILSLILKDKSAKFYLAHFAFLIVSALFVWGIYSGFYLKSLVIIFKQLFIYGFDIERYEAKLPTTFLDAVIARSGMVLYFAIAGIITFYLLVKTLKRRAFGIKLSTLSSILATISILAGAVSFLTPALSGIAHRFWYYGEVLSSAFVGSVLANLYERKKVIIVFNLIFICALSMLMFKANVANDDNPLVPYYSQRTGWHDSEIEAGKFVISKQGNIPIASDWDYSWNLRYLKTSLMASGALKDINRVTPKTFEEVKNCNCLFVFRKDLLENRLFYLGGRWTQTPHLPLSTLNLVIKELSENEGIIYNNNNILIMHLV | failed |
| MRRRGKGGGSVFYHEGKGKWVAQLTWIDPATGRKVKREKHCETRKEAERALADMVVAQAKGLLTDPSRLTTRDFALDYLKRLEREGLRPNSIRLAQEELAHALPSLKDPKAHDPLGRMRLQEVKPVHVRAAVDRVAEAGYAPRTVGRVLMRLKALFREALRLELVARNPAEAVRLRLPKGEKTARALEPQEVARLLETAEASRSKDMALLLRLMLETGLRRGEALALQWRDIDLEAGELTVWRSWTKARGKGAFSEPKTPTAKRKVPLPRGLLLRLKARREELLERLTPEEVDGLFLVGGVKPVDPDAFNHYLRRLAERAGLGRVRVHDLRHTWATLALSRGVPLEVVSERLGHASPTITLNVYRHLLEEERRGWVLDLEELLYPAPRAQA | failed |
| KRVFGFVSAKGGDGGSCIAANFAFALSQEPDIHVLAVDISLPFGDLDMYLSGNTHSQDLADISNASDRLDKSLLDTMVQHISPSLDLIPSPATFEKIVNIEPERVSDLIHIAASFYDYIIVDFGASIDHVGVWVLEHLDELCIVTTPSLQSLRRAGQLLKLCKEFEKPISRIEIILNRADTNSRITSDEIEKVIGRPISKRIPQDEDAMQESLLSGQSVLKVAPKSQLSKTIVDWALHLNGV | not failed |
| SAELGLNEHHQNEVINYMRFARSKRGLRLKTVDSCFQDLKESRLVEDTFTIDEVSEVLNGLQAVVHSEVESELINTAYTNVLLLRQLFAQAEKWYLKLQTDISELENRELLEQVAEFEKAEITSSNKKPILDVTKPKLAPLNEGGTAELLNKEILRLQEENEKLKSRLKTIEIQATNALDEKSKLEKALQDLQLDQGNQKDFIKAQDLSNLENTVAALKSEFQKTLNDKTENQKSLEENLATAKHDLLRVQEQLHMAEKELEKKFQQTAAYRNMKEILTKKNDQIKDLRKRLAQYEPED | not failed |

Source: a protein production outcome set (Wang et al. 2014)
